This note sets out measurements from PMC10201424, “Biochemical characterisation of Mer3 helicase interactions and the protection of meiotic recombination intermediates” (Nucleic Acids Research, 2022).

Conditions in all cases: both partners purified
The target in experiment [1] is T1, Mer3-Strep (full-length S. cerevisiae Mer3 with C-terminal 2xStrep-II tag) (S. cerevisiae, UniProt P51979 1-1187, phosphorylated in insect cells; high-confidence sites S17, S80, T100, S398, S958, T1092).
T1 sequence (looked up): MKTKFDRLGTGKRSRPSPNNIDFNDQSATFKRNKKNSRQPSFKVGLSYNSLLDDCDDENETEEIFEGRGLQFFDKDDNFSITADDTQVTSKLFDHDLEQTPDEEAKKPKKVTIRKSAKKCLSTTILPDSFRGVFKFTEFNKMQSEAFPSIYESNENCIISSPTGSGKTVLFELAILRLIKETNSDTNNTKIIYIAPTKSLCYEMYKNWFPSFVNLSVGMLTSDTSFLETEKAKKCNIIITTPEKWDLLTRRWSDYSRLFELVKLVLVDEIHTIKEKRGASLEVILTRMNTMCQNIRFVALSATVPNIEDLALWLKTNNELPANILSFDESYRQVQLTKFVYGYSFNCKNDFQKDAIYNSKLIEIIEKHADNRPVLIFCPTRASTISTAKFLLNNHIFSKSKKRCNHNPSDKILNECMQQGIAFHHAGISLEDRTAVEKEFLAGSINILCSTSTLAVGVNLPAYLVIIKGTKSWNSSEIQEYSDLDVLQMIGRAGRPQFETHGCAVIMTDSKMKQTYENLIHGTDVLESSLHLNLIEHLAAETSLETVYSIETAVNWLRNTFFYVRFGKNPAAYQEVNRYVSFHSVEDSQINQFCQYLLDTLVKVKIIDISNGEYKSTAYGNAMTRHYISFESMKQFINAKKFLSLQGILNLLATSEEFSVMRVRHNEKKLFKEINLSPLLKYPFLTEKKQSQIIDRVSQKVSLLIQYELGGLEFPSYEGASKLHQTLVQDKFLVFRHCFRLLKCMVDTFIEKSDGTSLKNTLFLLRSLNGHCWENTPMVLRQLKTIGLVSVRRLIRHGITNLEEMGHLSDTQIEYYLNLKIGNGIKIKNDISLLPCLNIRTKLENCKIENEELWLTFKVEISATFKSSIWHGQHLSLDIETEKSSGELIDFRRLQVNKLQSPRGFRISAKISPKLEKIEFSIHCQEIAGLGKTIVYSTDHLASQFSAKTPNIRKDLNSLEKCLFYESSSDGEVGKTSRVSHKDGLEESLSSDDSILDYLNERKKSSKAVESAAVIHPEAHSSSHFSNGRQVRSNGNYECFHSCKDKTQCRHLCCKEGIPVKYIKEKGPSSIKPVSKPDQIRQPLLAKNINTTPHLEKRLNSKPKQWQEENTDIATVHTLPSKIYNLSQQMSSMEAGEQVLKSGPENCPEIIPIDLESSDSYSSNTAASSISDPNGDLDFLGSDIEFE
Kind of experiment: pull-down; Mer3-Strep (0.7 μM) on streptavidin magnetic beads, His-Dmc1 3.2 μM or Rad51 2.8 μM; 25 mM HEPES pH 7.5, 5% glycerol, 100 mM NaCl, 1 mM TCEP, 0.1% Tween-20; stained gel.

Experiment [2] concerns the target T2, Top3/GST-Rmi1 complex (S. cerevisiae, UniProt P13099 1-656; Q02685 1-241).
T2 construct: Top3 (type IA topoisomerase), S. cerevisiae, from SK1 strain genomic DNA; untagged; Rmi1, S. cerevisiae, from SK1 strain genomic DNA; also called GST-tagged Top3–Rmi1; GST-Rmi1/Top3; source: Hi5 insect cells (co-expressed from pBIG1a), purified (GSTrap, ResourceS, SEC); not shown: GST, N-terminal, kept
T2 sequence (looked up) 1: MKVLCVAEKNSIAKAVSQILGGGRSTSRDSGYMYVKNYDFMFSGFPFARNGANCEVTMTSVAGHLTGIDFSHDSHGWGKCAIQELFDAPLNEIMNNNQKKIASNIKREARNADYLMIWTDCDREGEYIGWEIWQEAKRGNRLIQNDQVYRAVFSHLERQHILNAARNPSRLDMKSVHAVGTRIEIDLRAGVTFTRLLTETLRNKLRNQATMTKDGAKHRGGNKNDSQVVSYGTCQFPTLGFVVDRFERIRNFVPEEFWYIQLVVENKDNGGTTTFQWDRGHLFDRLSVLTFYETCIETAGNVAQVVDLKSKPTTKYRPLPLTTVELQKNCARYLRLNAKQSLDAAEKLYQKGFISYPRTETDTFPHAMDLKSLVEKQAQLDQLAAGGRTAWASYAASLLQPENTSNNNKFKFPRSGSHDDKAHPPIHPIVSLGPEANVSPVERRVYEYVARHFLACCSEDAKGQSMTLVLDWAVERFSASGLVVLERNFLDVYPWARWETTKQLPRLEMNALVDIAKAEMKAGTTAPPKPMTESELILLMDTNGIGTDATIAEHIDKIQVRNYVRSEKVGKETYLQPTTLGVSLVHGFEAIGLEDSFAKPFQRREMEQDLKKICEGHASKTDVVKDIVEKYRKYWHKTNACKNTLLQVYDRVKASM
T2 sequence (looked up) 2: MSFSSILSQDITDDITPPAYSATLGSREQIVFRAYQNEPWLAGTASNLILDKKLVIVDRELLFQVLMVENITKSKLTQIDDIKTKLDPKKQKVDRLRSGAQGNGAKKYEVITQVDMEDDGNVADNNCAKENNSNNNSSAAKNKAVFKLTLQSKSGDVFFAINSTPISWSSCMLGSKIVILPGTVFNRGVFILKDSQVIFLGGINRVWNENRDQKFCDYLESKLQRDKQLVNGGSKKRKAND
Put plainly: pull-down; competition: Top3/GST-Rmi1 (1 μM) on glutathione beads, Mer3-Strep 1 μM, His-Sgs1(1–107) 8 or 25 μM; 25 mM HEPES pH 7.5, 5% glycerol, 100 mM NaCl, 1 mM TCEP, 0.1% Tween-20; Coomassie.

The target in experiment [3] is T3, Top3/Rmi1 complex (as used in MST and XL-MS) (S. cerevisiae, UniProt P13099 1-656; Q02685 1-241).
T3 construct: Top3 (type IA topoisomerase), S. cerevisiae, from SK1 strain genomic DNA; untagged; Rmi1, S. cerevisiae, from SK1 strain genomic DNA; The methods describe a GST-tagged and an untagged (3C protease cleaved) preparation; source: Hi5 insect cells (co-expressed from pBIG1a), purified
T3 sequence (looked up) 1: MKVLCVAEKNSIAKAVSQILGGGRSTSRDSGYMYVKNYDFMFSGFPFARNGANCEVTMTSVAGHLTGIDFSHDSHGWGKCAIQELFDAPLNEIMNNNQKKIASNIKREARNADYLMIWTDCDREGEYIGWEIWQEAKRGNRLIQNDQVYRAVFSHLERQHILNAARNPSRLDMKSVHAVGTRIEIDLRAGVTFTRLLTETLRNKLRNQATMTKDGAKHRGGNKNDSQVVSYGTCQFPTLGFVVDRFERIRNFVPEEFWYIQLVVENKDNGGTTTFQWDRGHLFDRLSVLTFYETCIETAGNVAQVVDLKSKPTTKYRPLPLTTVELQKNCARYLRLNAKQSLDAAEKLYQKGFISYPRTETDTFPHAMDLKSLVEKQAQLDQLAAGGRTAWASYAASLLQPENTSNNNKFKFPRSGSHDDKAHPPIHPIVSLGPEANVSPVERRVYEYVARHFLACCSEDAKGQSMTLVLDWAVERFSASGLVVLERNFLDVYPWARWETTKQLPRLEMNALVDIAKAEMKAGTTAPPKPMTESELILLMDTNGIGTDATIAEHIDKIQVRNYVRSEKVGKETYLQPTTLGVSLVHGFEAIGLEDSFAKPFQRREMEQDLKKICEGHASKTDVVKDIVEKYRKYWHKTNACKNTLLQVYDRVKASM
T3 sequence (looked up) 2: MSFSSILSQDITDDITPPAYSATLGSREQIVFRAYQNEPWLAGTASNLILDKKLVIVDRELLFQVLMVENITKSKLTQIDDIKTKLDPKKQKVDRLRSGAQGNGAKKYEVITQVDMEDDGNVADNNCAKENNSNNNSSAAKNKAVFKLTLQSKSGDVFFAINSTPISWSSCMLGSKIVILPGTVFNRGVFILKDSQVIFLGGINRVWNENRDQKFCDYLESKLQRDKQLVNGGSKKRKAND
Kind of experiment: MST; 30 nM RED-NHS labelled Sgs1(1–605), Top3–Rmi1 titrated; 50 mM Tris–HCl pH 7.4, 150 mM NaCl, 10 mM MgCl2, 0.05% Tween-20; 25°C; triplicates.

What is called Kd is the free concentration of one partner at which half of the binding sites on the other are occupied at equilibrium, for simple one-to-one binding. A higher Kd goes with lower affinity.

B1: His-Dmc1 (natural protein, yeast, UniProt P25453 1-334, looked up)
chain: MSVTGTEIDSDTAKNILSVDELQNYGINASDLQKLKSGGIYTVNTVLSTTRRHLCKIKGLSEVKVEKIKEAAGKIIQVGFIPATVQLDIRQRVYSLSTGSKQLDSILGGGIMTMSITEVFGEFRCGKTQMSHTLCVTTQLPREMGGGEGKVAYIDTEGTFRPERIKQIAEGYELDPESCLANVSYARALNSEHQMELVEQLGEELSSGDYRLIVVDSIMANFRVDYCGRGELSERQQKLNQHLFKLNRLAEEFNVAVFLTNQVQSDPGASALFASADGRKPIGGHVLAHASATRILLRKGRGDERVAKLQDSPDMPEKECVYVIGEKGITDSSD
For B1, the binding result in experiment [1] is “binds”.

B2: His-tagged Sgs1(1–107) (domain or fragment, S. cerevisiae, UniProt P35187 1-107, looked up)
chain: MVTKPSHNLRREHKWLKETATLQEDKDFVFQAIQKHIANKRPKTNSPPTTPSKDECGPGTTNFITSIPASGPTNTATKQHEVMQTLSNDTEWLSYTATSNQYADVPM
notes: also called shorter fragment of Sgs1; source: E. coli BL21 STAR, purified (Ni-NTA, ResourceQ, SEC); not shown: His6, N-terminal, kept
For the molecule B2, in experiment [2], the binding result is recorded as “binds”.

B3: Sgs1(1–605) (domain or fragment, S. cerevisiae, UniProt P35187 1-605, looked up)
chain: MVTKPSHNLRREHKWLKETATLQEDKDFVFQAIQKHIANKRPKTNSPPTTPSKDECGPGTTNFITSIPASGPTNTATKQHEVMQTLSNDTEWLSYTATSNQYADVPMVDIPASTSVVSNPRTPNGSKTHNFNTFRPHMASSLVENDSSRNLGSRNNNKSVIDNSSIGKQLENDIKLEVIRLQGSLIMALKEQSKLLLQKCSIIESTSLSEDAKRLQLSRDIRPQLSNMSIRIDSLEKEIIKAKKDGMSKDQSKGRSQVSSQDDNIISSILPSPLEYNTSSRNSNLTSTTATTVTKALAITGAKQNITNNTGKNSNNDSNNDDLIQVLDDEDDIDCDPPVILKEGAPHSPAFPHLHMTSEEQDELTRRRNMRSREPVNYRIPDRDDPFDYVMGKSLRDDYPDVEREEDELTMEAEDDAHSSYMTTRDEEKEENELLNQSDFDFVVNDDLDPTQDTDYHDNMDVSANIQESSQEGDTRSTITLSQNKNVQVILSSPTAQSVPSNGQNQIGVEHIDLLEDDLEKDAILDDSMSFSFGRQHMPMSHSDLELIDSEKENEDFEEDNNNNGIEYLSDSDLERFDEERENRTQVADIQELDNDLKIITERKL
notes: Sgs1 helicase, S. cerevisiae, from SK1 strain genomic DNA, residues 1-605; For MST the fragment was labelled with RED-NHS dye; also called untagged Sgs1(1–605); N-terminal fragment of Sgs1; source: E. coli BL21 STAR, purified (MBPtrap, ResourceQ, 3C cleavage, SEC); not shown: His6, N-terminal, cleaved; MBP, N-terminal, cleaved
In experiment [3], B3 gave a Kd of 478 ± 205 nM.
